Measured values as given in patent US20180217151A1 (MILTENYI BIOTEC, published 2018).

Experiments:
Test in all cases: SPR (Biacore), recombinant antigen (extracellular domain) immobilized by amine coupling, Fab as analyte, 1:1 binding mass transfer model
[1] = target: T1, recombinant CD45RA antigen ( (the Fab labels human PBMCs))
T1 construct: extracellular domain; also called CD45RA, recombinant extracellular domain
Procedure: (§1) FIGS. 7A and 7B show surface plasmon resonance sensorgrams of anti-CD25 rFabs using immobilized recombinant CD25 antigen. At t 110 sec, different concentrations of Fab were injected for 180 sec. At t 290 sec, the dissociation phase started.
(§2) The Fab variants of example 1 and 4 were analyzed by surface plasmon resonance spectroscopy (Biacore™). Therefore, the specific recombinant antigen (extracellular domain, expressed in mammalian cells) for a Fab was immobilized on a CMS chip by standard amine coupling. The Fab variants were used as analytes in HBS-EP buffer (0.01 M HEPES pH 7.4, 0.15 M NaCl, 3 mM EDTA, 0.005% v/v Surfactant P20) in a concentration of up to 2 μM Fab. Evaluation was conducted with the Biacore™ X-100 Evaluation Software using an 1:1 binding mass transfer model.

recombinant CD3 antigen = recombinant CD3 antigen ( (the Fab labels human PBMCs))
Procedure: as §1, §2

recombinant CD4 antigen = target: T2, recombinant CD4 antigen ( (the Fab labels human PBMCs), UniProt P01730)
T2 construct: extracellular domain; also called CD4, recombinant extracellular domain
Procedure: as §1, §2

recombinant CD25 antigen = target: T3, recombinant CD25 antigen ( (the Fab labels human PBMCs), UniProt P01589)
T3 construct: extracellular domain; also called immobilized recombinant CD25 antigen; CD25, recombinant extracellular domain
T3 sequence (antigen, looked up): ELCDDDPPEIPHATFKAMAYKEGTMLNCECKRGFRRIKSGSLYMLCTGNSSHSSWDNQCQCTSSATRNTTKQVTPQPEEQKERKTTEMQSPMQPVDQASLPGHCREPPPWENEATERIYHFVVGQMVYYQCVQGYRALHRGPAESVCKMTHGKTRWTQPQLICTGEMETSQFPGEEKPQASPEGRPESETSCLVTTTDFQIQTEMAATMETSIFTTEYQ
Procedure: as §1, §2

recombinant CD28 antigen = target: T4, recombinant CD28 antigen ( (the Fab labels human PBMCs), UniProt P10747)
T4 construct: extracellular domain; also called CD28, recombinant extracellular domain
Procedure: as §1, §2

Chain of recombinant CD3 antigen ( (the Fab labels human PBMCs)) (chain, as listed by the source): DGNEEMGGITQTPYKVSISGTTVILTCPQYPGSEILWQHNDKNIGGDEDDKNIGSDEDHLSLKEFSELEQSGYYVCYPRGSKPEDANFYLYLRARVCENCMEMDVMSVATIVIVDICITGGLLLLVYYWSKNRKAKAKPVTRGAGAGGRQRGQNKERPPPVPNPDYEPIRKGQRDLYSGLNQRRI

B1: MEM56-LAV rFab (Fab, V domains shown)
VH: QVQLQQSGAELAKPGASVKMSCKASGYNFTRYWMHWIKQRPGQGLEWIGYINPNTGHTEYNQKFKDKATLTADKSSSTAYMQLSSLTSEDSAVYYCATYYYGSRRDAGQGTTLTVSS
VL: QIVLTQSPAIMSASLGERVTMTCTTSSSVSSSYLHWYQQKPGSSPKLWIYSTSNLASGVPARFSGSGSGTSYSLTISTVEAEDAATYYCHQYHRSPLTFGAGTKLELKR
modifications: In the cell assay the Fab was biotinylated with a thiol-reactive reagent (e.g. maleimide-PEO2-biotin) on cysteines of the reduced disulfide bridge; positions not stated.
notes: Recombinant Fab from E. coli; heavy chain optionally followed by a poly-histidine tag; Biotinylated for the cell assay; also called mutated variant of anti-CD45RA clone MEM56
In the case of B1, the Kd [1] is reported as 1300 nM, the koff [1] is reported as 0.11 s⁻¹ and the kon [1] is reported as 88000 M⁻¹ s⁻¹.

B2: OKT3-hum rFab (Fab, V domains shown)
VH: QVQLVQSGGGVVQPGRSLRLSCKASGYTFTRYTMHWVRQAPGKGLEWIGYINPSRGYTNYNQKVKDRFTISRDNSKNTAFLQMDSLRPEDTGVYFCARYYDDHYSLDYWGQGTPVTVSS
VL: DIQMTQSPSSLSASVGDRVTITCSASSSVSYMNWYQQTPGKAPKRWIYDTSKLASGVPSRFSGSGSGTDYTFTISSLQPEDIATYYCQQWSSNPFTFGQGTKLQITR
modifications: For the cell assay: biotin (thiol-reactive reagent) on cysteine(s) of the reduced disulfide bridge, position not stated
notes: Recombinant Fab from E. coli; purified by IMAC; also called humanized variant of anti-CD3 clone OKT3; anti-CD3 rFab
For B2, the Kd (recombinant CD3 antigen) was 46 nM, the koff (recombinant CD3 antigen) was 0.19 s⁻¹ and the kon (recombinant CD3 antigen) was 4.1e+06 M⁻¹ s⁻¹.

B3: 13B8.2-LAV rFab (Fab, V domains shown)
VH: QVQLKQSGPGLVQPSQSLSITCTVSGFSLTTFGVHWVRQSPGKGLEWLGVIWASGITDYNVPFMSRLSITKDNSKSQVFFKLNSLQPDDTAIYYCAKNDPGTGFAYWGQGTLVTVSA
VL: DIQMTQSPASLSASVGETVTFTCRASENIYSYLAWYQQKQGKSPQLLVHDAKTLAEGVPSRFSGGGSGTQFSLKINTLQPEDFGTYYCQHAYGNPPTFGGGTKLEIKR
modifications: For the cell assay: biotin (thiol-reactive reagent) on cysteine(s) of the reduced disulfide bridge, position not stated
notes: Recombinant Fab from E. coli; heavy chain optionally followed by a poly-histidine tag; Biotinylated for the cell assay; also called mutated variant of anti-CD4 clone 13B8.2
With B3 the Kd (recombinant CD4 antigen) was 15000 nM, the koff (recombinant CD4 antigen) was 0.006 s⁻¹ and the kon (recombinant CD4 antigen) was 410 M⁻¹ s⁻¹.

B4: RFT5 rFab (Fab, V domains shown)
VH: EVQLQQSGTVLARPGASVKMSCKASGYSFTRYWMHWIKQRPGQGLEWIGAIYPGNSDTSYNQKFEGKAKLTAVTSASTAYMELSSLTHEDSAVYYCSRDYGYYFDFWGQGTTLTVSS
VL: QIVLTQSPAIMSASPGEKVTMTCSASSSISYMQWYQQKPGTSPKRWIYDTSKLASGVPARFSGSGSGTSYSLTISSMEAEDAATYYCHQRSSYTFGGGTKLEIKR
modifications: For the cell assay: biotin (thiol-reactive reagent) on cysteine(s) of the reduced disulfide bridge, position not stated
notes: Recombinant Fab from E. coli; heavy chain optionally followed by a poly-histidine tag; Biotinylated for the cell assay; also called anti-CD25 rFab (based on clone RFT5)
In the case of B4, the Kd (recombinant CD25 antigen) is reported as 0.2 nM, the koff (recombinant CD25 antigen) is reported as 0.00038 s⁻¹ and the kon (recombinant CD25 antigen) is reported as 1.9e+06 M⁻¹ s⁻¹.

B5: RFT5-LAV rFab (Fab, V domains shown)
VH: EVQLQQSGTVLARPGASVKMSCKASGYSFTRYWMAWIKQRPGQGLEWIGAIYPGNSDTSYNQKFEGKAKLTAVTSASTAYMELSSLTHEDSAVYYCSRDYGYYFDFAGQGTTLTVSS
VL: QIVLTQSPAIMSASPGEKVTMTCSASSSISYMQWYQQKPGTSPKRWIYDTSKLASGVPARFSGSGSGTSYSLTISSMEAEDAATYYCHQRSSYTFGGGTKLEIKR
modifications: For the cell assay: biotin (thiol-reactive reagent) on cysteine(s) of the reduced disulfide bridge, position not stated
notes: Recombinant Fab from E. coli; heavy chain optionally followed by a poly-histidine tag; Biotinylated for the cell assay; also called mutated variant of anti-CD25 clone RFT5
B5 was tested, and the Kd (recombinant CD25 antigen) was 21 nM, the koff (recombinant CD25 antigen) was 0.21 s⁻¹ and the kon (recombinant CD25 antigen) was 1e+07 M⁻¹ s⁻¹.

B6: 15E8-hum rFab (Fab, V domains shown)
VH: QVQLQESGPGLVKPSETLSLTCTVSGFSLTSYGVHWIRQPPGKGLEWLGVIWAGGSTNYNSSLKSRVTISKDTSKNQVSLKLSSVTAADTAVYYCARDKRAPGKLYYGYPDYWGQGTTLTVSS
VL: DIVMTQSPDSLAVSLGERATINCRASESVEYYVTSLMQWYQQKPGQPPKLLIYAASNVESGVPARFSGSGSGTDFTLTISPLQAEDVAVYYCQQTRKVPSTFGGGTKLEIKR
modifications: For the cell assay: biotin (thiol-reactive reagent) on cysteine(s) of the reduced disulfide bridge, position not stated
notes: Recombinant Fab from E. coli; heavy chain optionally followed by a poly-histidine tag; Biotinylated for the cell assay; also called humanized variant of anti-CD28 clone 15E8
Binder B6 has a Kd (recombinant CD28 antigen) of 21 nM, a koff (recombinant CD28 antigen) of 0.089 s⁻¹ and a kon (recombinant CD28 antigen) of 4.3e+06 M⁻¹ s⁻¹.
